We go through 2 substances from article PMC10243088.

Test [1] concerns the target ferroportin (human (endogenous in HEK 293 and iPSC-derived ECs)) (UniProt Q9NP59).
Test [2] shares this target. This is another data set of the same source.
The target is the same in test [3]. The source holds these as a separate data set.

Chain of UniProt Q9NP59 (Q9NP59 whole entry): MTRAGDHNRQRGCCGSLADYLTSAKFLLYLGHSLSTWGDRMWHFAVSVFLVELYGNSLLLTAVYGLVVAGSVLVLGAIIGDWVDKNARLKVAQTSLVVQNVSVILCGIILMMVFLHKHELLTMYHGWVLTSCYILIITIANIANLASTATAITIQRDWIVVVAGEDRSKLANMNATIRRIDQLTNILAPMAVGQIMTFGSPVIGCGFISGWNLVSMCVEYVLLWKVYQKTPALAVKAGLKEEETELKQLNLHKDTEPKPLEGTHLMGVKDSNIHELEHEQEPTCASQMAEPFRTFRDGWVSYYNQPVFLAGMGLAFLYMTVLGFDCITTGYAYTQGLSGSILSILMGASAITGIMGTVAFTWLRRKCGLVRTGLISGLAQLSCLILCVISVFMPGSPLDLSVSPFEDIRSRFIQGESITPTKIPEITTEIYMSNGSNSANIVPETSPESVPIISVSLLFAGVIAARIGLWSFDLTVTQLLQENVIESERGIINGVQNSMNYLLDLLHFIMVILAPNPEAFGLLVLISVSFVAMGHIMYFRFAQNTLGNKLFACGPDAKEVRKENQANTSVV

Take hepcidin (peptide): the membrane Fpn in HEK 293 cells with 500 nM hepcidin, 5-60 min (membrane protein isolation, immunoblot), compared to holo-Tf treatment in test [1] is 70%.

“holo-transferrin (iron bound transferrin) (from UniProt P02787 20-698) (natural protein)” returned a Fpn protein level in iPSC-derived ECs after 8 h with increasing concentrations of holo-Tf in the basal chamber (immunoblot), from 0.1 μM in test [2] of 50%. Further, the Fpn protein level in iPSC-derived ECs with 0.25 μM holo-Tf over time, intervals of 1 h up to 5 h (immunoblot) in test [3] amounted to 50%. The substance also gave a membrane Fpn in HEK 293 cells with 0.25 μM holo-Tf, 5-60 min (membrane protein isolation, immunoblot), compared to control in test [1] of 20%.
